According to patent US20250136688A1 (Janssen / Centocor, published 2025):

How the values were obtained:
human GUCY2C [1] = target: T1, human GUCY2C (human, UniProt P25092 24-1073); test: cell-based or functional assay
human GUCY2C [2] = target: T1, human GUCY2C; test: flow cytometry on T84 cells, 1 hour at 37 °C
cynomolgus monkey CD3 = target: T2, cynomolgus monkey CD3 (cynomolgus monkey, UniProt Q95LI5 22-198); test: not described
T2 construct: whole, on cells; also called cyno CD3; NHP CD3

Human CD3 epsilon = target: T3, Human CD3 epsilon (human, UniProt P07766 23-207); test: flow cytometry on primary T cells, 1 hour at 37 °C
T3 construct: Stood on human T cells (pan-T cells, isolated donor T cells) as part of the TCR/CD3 complex; the other chains of the complex are not written here; also called CD3ε; CD3R
T3 sequence (P07766 23-207 limits assumed): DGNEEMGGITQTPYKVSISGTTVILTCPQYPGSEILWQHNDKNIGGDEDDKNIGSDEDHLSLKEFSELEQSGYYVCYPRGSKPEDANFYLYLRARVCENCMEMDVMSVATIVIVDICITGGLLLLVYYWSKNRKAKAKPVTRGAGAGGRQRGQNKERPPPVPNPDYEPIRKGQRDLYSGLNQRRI

T1 sequence (P25092 24-1073): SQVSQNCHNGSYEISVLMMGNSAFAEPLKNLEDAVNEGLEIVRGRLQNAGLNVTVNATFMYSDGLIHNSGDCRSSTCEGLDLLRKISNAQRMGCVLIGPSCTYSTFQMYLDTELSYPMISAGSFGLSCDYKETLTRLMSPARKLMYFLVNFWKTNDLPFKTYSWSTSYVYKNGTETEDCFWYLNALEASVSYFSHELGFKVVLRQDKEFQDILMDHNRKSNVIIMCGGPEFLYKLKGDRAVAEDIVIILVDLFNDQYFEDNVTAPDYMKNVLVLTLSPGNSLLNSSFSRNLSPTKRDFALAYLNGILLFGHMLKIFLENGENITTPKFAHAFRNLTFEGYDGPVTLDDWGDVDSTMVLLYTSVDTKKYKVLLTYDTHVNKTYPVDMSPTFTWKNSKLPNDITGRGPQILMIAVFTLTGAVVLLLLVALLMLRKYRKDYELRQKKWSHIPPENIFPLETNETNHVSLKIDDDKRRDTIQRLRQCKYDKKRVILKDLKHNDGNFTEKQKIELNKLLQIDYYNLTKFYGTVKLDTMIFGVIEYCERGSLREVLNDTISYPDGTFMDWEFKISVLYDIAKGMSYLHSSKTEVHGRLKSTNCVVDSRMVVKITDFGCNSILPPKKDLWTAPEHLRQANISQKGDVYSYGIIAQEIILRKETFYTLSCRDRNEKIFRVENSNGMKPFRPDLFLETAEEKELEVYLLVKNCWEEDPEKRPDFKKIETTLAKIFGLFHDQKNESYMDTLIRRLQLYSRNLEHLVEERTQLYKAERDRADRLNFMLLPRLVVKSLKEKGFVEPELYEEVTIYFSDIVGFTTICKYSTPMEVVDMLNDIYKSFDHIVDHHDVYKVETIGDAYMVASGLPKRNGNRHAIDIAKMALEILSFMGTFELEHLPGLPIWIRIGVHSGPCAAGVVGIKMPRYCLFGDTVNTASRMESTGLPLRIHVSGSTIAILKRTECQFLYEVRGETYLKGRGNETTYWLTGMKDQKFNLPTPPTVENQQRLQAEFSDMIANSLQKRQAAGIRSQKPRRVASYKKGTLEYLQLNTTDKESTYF
T2 sequence (Q95LI5 22-198): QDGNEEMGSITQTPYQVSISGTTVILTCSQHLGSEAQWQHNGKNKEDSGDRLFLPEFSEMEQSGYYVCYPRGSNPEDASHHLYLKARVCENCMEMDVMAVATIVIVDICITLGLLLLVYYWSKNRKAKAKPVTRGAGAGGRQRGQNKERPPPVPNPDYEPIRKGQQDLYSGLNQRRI

EC50 (human GUCY2C [2]): 12 nM
binding result (cynomolgus monkey CD3): no binding
EC50 (Human CD3 epsilon): 108 nM
B1: GUCY2C×CD3_biAb-1 (bispecific antibody, human IgG1, kappa, L234A L235A)
heavy: QVQLQESGPGLVKPSETLSLTCTVSGASISHYYWSWIRRPAGKGLEWIGRIYTSGSTNYNPSLKSRVTVSVDTSKNQFSLKLSSVTAADTAVYYCARDRYTGYFDLWGRGTLVTVSSASTKGPSVFPLAPSSKSTSGGTAALGCLVKDYFPEPVTVSWNSGALTSGVHTFPAVLQSSGLYSLSSVVTVPSSSLGTQTYICNVNHKPSNTKVDKKVEPKSCDKTHTCPPCPAPEAAGGPSVFLFPPKPKDTLMISRTPEVTCVVVSVSHEDPEVKFNWYVDGVEVHNAKTKPREEQYNSTYRVVSVLTVLHQDWLNGKEYKCKVSNKALPAPIEKTISKAKGQPREPQVYTLPPSREEMTKNQVSLSCAVKGFYPSDIAVEWESNGQPENNYKTTPPVLDSDGSFFLVSKLTVDKSRWQQGNVFSCSVMHEALHNRFTQKSLSLSPGK
light: not shown
chain: EIVLTQSPATLSASPGERVTLSCSASSSVSYMNWYQQKPGCAPRRWIYDSSKLASGVPARFSGSGSGRDYTLTISSLEPEDFAVYYCQQWSRNPPTFGGGTKVEIKGGGSGGSGGCPPCGGSGGQVQLVQSGAEVKKPGSSVKVSCKASGYTFTRSTMHWVKQAPGQGLEWIGYINPSSAYTNYNQKFQGRVTLTADKSTSTAYMELSSLRSEDTAVYYCASPQVHYDYAGFPYWGCGTLVTVSSEPKSSDKTHTCPPCPAPEAAGGPSVFLFPPKPKDTLMISRTPEVTCVVVSVSHEDPEVKFNWYVDGVEVHNAKTKPREEQYNSTYRVVSVLTVLHQDWLNGKEYKCKVSNKALPAPIEKTISKAKGQPREPQVYTLPPSREEMTKNQVSLWCLVKGFYPSDIAVEWESNGQPENNYKTTPPVLDSDGSFFLYSKLTVDKSRWQQGNVFSCSVMHEALHNHYTQKSLSLSPGK
notes: HC2 = CD3_spFv-1-Fc (knob); IgG1 with L234A/L235A/D265S; also called GUCY2CxCD3 bisp-Ab1; GUCY2C-CD3-bisp-Ab1
Tumor killing EC50 (nM), HT-55 (human GUCY2C [1]): 0.8 nM
Tumor killing EC50 (nM), LS1034 (human GUCY2C [1]): 0.04 nM
